Experimental data: IntAct's records for PubMed 29892012

B1: Abl interactor 2 (Homo sapiens), Q9NYB9 (parent)
chain: MAELQMLLEEEIPGGRRALFDSYTNLERVADYCENNYIQSADKQRALEETKAYTTQSLASVAYLINTLANNVLQMLDIQASQLRRMESSINHISQTVDIHKEKVARREIGILTTNKNTSRTHKIIAPANLERPVRYIRKPIDYTILDDIGHGVKWLLRFKVSTQNMKMGGLPRTTPPTQKPPSPPMSGKGTLGRHSPYRTLEPVRPPVVPNDYVPSPTRNMAPSQQSPVRTASVNQRNRTYSSSGSSGGSHPSSRSSSRENSGSGSVGVPIAVPTPSPPSVFPAPAGSAGTPPLPATSASAPAPLVPATVPSSTAPNAAAGGAPNLADGFTSPTPPVVSSTPPTGHPVQFYSMNRPASRHTPPTIGGSLPYRRPPSITSQTSLQNQMNGGPFYSQNPVSDTPPPPPPVEEPVFDESPPPPPPPEDYEEEEAAVVEYSDPYAEEDPPWAPRSYLEKVVAIYDYTKDKEDELSFQEGAIIYVIKKNDDGWYEGVMNGVTGLFPGNYVESIMHYSE
partner: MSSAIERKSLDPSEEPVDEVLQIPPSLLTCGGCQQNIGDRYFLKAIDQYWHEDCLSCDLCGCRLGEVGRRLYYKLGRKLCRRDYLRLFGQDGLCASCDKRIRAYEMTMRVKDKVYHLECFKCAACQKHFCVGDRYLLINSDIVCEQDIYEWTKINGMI
B2: Cilium assembly protein DZIP1L (Homo sapiens), Q8IYY4 (parent)
chain: MQSPAATAEGLSGPLFGAYTFPTFKFQPRHDSMDWRRISTLDVDRVARELDVATLQENIAGITFCNLDREVCSRCGQPVDPALLKVLRLAQLIIEYLLHCQDCLSASVAQLEARLQTSLGQQQRGQQELGRQADELKGVREESRRRRKMISTLQQLLMQTGTHSYHTCHLCDKTFMNATFLRGHIQRRHAGVAEGGKQKKQEQPVEEVLEELRAKLKWTQGELEAQREAERQRQLQEAELIHQREIEAKKEFDKWKEQEWTKLYGEIDKLKKLFWDEFKNVAKQNSTLEEKLRALQSHSVMESKLGSLRDEESEEWLRQARELQALREKTEIQKTEWKRKVKELHEEHMAEKKELQEENQRLQASLSQDQKKAAAQSQCQISTLRAQLQEQARIIASQEEMIQSLSLRKVEGIHKVPKAVDTEEDSPEEEMEDSQDEQHKVLAALRRNPTLLKHFRPILEDTLEEKLESMGIRKDAKGISIQTLRHLESLLRVQREQKARKFSEFLSLRGKLVKEVTSRAKERQENGAVVSQPDGQPSVKSQQSTLVTREAQPKTRTLQVALPSTPAEPPPPTRQSHGSHGSSLTQVSAPAPRPGLHGPSSTPPSSGPGMSTPPFSSEEDSEGDRVQRVSLQPPKVPSRMVPRPKDDWDWSDTETSEENAQPPGQGSGTLVQSMVKNLEKQLEAPAKKPAGGVSLFFMPNAGPQRAATPGRKPQLSEDESDLEISSLEDLPLDLDQREKPKPLSRSKLPEKFGTGPQSSGQPRVPAW
B3: E3 ubiquitin-protein ligase LNX (Homo sapiens), Q8TBB1 (parent)
chain: MNQPESANDPEPLCAVCGQAHSLEENHFYSYPEEVDDDLICHICLQALLDPLDTPCGHTYCTLCLTNFLVEKDFCPMDRKPLVLQHCKKSSILVNKLLNKLLVTCPFREHCTQVLQRCDLEHHFQTSCKGASHYGLTKDRKRRSQDGCPDGCASLTATAPSPEVSAAATISLMTDEPGLDNPAYVSSAEDGQPAISPVDSGRSNRTRARPFERSTIRSRSFKKINRALSVLRRTKSGSAVANHADQGRENSENTTAPEVFPRLYHLIPDGEITSIKINRVDPSESLSIRLVGGSETPLVHIIIQHIYRDGVIARDGRLLPGDIILKVNGMDISNVPHNYAVRLLRQPCQVLWLTVMREQKFRSRNNGQAPDAYRPRDDSFHVILNKSSPEEQLGIKLVRKVDEPGVFIFNVLDGGVAYRHGQLEENDRVLAINGHDLRYGSPESAAHLIQASERRVHLVVSRQVRQRSPDIFQEAGWNSNGSWSPGPGERSNTPKPLHPTITCHEKVVNIQKDPGESLGMTVAGGASHREWDLPIYVISVEPGGVISRDGRIKTGDILLNVDGVELTEVSRSEAVALLKRTSSSIVLKALEVKEYEPQEDCSSPAALDSNHNMAPPSDWSPSWVMWLELPRCLYNCKDIVLRRNTAGSLGFCIVGGYEEYNGNKPFFIKSIVEGTPAYNDGRIRCGDILLAVNGRSTSGMIHACLARLLKELKGRITLTIVSWPGTFL

Variants of: B1
Details: with rbtn2_human LMO2, P25791

effect of a mutation on the interaction	Variant
with no effect	R373C

Variants of: B1
Details: with rbtn2_human LMO2, P25791
Remark: another data set of the same source

effect of a mutation on the interaction	Variant
with no effect	E202K

Variants of: B2
Details: with cep76_human CEP76, Q8TAP6
cep76_human CEP76, Q8TAP6, sequence (Q8TAP6 whole entry): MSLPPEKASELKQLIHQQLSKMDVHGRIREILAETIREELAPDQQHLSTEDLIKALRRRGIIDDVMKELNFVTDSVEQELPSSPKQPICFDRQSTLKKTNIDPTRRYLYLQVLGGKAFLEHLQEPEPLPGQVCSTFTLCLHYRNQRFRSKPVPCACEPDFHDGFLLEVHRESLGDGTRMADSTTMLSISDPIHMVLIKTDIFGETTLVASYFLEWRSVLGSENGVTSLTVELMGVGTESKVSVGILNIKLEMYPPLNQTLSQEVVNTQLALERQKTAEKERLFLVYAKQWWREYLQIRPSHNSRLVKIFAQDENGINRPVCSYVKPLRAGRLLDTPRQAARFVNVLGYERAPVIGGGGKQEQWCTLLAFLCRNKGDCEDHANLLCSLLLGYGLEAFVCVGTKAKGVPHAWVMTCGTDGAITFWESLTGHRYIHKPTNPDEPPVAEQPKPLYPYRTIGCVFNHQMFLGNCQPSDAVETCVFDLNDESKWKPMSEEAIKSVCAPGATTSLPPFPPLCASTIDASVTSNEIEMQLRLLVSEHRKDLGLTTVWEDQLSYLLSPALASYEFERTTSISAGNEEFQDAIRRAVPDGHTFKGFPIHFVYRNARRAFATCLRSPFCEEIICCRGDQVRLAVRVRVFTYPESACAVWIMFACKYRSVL

effect of a mutation on the interaction	Variant
with no effect	R643W

Variants of: B3
Details: with srsf1_human SRSF1, Q07955
srsf1_human SRSF1, Q07955, sequence (Q07955 whole entry): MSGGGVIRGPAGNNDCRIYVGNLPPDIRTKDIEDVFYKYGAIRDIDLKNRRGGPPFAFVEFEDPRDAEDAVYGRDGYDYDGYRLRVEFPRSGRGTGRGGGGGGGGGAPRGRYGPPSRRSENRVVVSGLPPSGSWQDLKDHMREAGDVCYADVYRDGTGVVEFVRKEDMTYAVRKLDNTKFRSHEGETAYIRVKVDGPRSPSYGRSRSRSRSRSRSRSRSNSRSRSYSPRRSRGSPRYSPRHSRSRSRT

effect of a mutation on the interaction	Variant
disrupting interaction strength	E295K

Variants of: B3
Details: with pmgt1_human POMGNT1, Q8WZA1
pmgt1_human POMGNT1, Q8WZA1, sequence (Q8WZA1 whole entry): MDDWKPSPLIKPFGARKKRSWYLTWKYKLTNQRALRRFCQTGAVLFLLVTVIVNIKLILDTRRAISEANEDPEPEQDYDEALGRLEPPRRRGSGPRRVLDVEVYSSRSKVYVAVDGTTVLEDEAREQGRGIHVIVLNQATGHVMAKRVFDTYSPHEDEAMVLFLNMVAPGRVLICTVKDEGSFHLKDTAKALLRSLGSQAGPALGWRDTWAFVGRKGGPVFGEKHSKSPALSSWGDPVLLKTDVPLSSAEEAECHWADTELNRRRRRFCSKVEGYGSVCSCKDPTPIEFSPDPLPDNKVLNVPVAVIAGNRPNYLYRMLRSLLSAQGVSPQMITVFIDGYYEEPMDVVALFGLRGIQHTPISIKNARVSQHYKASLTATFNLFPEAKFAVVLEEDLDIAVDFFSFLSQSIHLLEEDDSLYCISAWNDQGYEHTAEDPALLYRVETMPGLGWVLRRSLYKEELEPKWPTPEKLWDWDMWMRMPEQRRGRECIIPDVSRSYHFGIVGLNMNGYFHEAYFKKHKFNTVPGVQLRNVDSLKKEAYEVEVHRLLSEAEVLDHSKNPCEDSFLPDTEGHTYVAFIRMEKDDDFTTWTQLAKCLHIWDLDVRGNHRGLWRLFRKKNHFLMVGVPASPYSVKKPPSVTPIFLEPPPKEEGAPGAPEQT

effect of a mutation on the interaction	Variant
disrupting interaction strength	E295K

Variants of: B3
Details: with nagk_human NAGK

effect of a mutation on the interaction	Variant
disrupting interaction strength	E295K

Variants of: B3
Details: with cep72_human CEP72, Q9P209
cep72_human CEP72, Q9P209, sequence (Q9P209 whole entry): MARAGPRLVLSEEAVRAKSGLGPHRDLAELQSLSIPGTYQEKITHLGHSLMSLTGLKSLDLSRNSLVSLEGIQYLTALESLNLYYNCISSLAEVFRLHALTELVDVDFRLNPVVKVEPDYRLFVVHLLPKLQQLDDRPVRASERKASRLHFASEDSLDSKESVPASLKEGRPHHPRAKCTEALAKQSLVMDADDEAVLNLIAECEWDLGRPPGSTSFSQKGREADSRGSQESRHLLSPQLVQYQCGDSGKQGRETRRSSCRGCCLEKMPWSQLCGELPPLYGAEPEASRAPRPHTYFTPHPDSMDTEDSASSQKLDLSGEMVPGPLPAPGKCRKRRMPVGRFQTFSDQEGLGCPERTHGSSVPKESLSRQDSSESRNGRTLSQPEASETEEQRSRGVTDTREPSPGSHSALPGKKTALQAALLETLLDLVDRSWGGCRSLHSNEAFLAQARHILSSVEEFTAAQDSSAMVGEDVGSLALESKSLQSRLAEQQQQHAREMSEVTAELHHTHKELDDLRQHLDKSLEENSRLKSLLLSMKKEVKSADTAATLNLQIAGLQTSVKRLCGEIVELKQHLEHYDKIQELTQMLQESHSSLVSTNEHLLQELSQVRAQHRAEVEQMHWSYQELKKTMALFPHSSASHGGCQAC

effect of a mutation on the interaction	Variant
disrupting interaction strength	E295K

Variants of: B3
Details: with mk09_human MAPK9, P45984

effect of a mutation on the interaction	Variant
with no effect	E295K

Variants of: B3
Details: with grb2_human GRB2, P62993

effect of a mutation on the interaction	Variant
disrupting interaction strength	E295K

Variants of: B3
Details: with ldoc1_human LDOC1, O95751
ldoc1_human LDOC1, O95751, sequence (O95751 whole entry): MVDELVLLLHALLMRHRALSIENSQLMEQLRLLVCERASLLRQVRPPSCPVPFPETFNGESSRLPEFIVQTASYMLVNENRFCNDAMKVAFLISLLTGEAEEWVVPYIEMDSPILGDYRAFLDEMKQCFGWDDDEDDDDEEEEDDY

effect of a mutation on the interaction	Variant
disrupting interaction strength	E295K

Variants of: B3
Details: with kcd17_human KCTD17, Q8N5Z5
kcd17_human KCTD17, Q8N5Z5, sequence (Q8N5Z5 whole entry): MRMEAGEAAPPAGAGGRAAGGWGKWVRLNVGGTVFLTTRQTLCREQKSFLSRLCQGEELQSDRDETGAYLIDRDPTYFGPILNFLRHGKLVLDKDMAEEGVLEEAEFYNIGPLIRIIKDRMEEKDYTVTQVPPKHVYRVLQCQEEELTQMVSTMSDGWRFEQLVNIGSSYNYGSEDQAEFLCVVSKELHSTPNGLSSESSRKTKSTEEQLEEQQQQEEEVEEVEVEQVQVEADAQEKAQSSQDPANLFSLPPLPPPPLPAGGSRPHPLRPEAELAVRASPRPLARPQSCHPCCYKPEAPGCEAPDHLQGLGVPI

effect of a mutation on the interaction	Variant
disrupting interaction strength	E295K

Variants of: B3
Details: with rpia_human RPIA

effect of a mutation on the interaction	Variant
disrupting interaction strength	E295K

Variants of: B3
Details: with tera_human VCP

effect of a mutation on the interaction	Variant
disrupting interaction strength	E295K

Variants of: B3
Details: with KRT15, P19012
KRT15, P19012, sequence (P19012 whole entry): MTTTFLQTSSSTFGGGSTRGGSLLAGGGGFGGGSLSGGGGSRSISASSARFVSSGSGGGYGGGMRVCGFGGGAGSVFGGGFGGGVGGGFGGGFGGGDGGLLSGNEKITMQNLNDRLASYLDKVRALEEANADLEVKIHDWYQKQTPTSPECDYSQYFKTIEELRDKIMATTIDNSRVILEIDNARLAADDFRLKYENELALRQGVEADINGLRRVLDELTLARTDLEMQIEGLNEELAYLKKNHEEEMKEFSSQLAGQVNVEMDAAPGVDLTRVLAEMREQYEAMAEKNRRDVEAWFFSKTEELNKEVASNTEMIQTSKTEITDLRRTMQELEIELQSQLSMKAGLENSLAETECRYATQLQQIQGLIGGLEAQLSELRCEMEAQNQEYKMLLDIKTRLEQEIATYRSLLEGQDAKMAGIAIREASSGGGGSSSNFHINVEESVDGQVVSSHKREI

effect of a mutation on the interaction	Variant
disrupting interaction strength	E295K

Variants of: B3
Details: with rop1a_human ROPN1, Q9HAT0
rop1a_human ROPN1, Q9HAT0, sequence (Q9HAT0 whole entry): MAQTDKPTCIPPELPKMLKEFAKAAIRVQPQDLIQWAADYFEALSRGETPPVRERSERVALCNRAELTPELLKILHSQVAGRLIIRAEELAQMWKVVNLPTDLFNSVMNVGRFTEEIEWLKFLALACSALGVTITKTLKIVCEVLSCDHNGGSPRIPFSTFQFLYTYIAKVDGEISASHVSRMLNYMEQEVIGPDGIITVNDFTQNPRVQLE

effect of a mutation on the interaction	Variant
disrupting interaction strength	E295K

Variants of: B3
Details: with nt2na_human NOTCH2NLA

effect of a mutation on the interaction	Variant
disrupting interaction strength	E295K

Variants of: B3
Details: with mt21a_human METTL21A

effect of a mutation on the interaction	Variant
disrupting interaction strength	E295K

Variants of: B3
Details: with zbt8a_human ZBTB8A

effect of a mutation on the interaction	Variant
disrupting interaction strength	E295K

Variants of: B3
Details: with dnpep_human DNPEP

effect of a mutation on the interaction	Variant
disrupting interaction strength	E295K

Variants of: B3
Details: with clk2_human CLK2, P49760
clk2_human CLK2, P49760, sequence (P49760 whole entry, looked up): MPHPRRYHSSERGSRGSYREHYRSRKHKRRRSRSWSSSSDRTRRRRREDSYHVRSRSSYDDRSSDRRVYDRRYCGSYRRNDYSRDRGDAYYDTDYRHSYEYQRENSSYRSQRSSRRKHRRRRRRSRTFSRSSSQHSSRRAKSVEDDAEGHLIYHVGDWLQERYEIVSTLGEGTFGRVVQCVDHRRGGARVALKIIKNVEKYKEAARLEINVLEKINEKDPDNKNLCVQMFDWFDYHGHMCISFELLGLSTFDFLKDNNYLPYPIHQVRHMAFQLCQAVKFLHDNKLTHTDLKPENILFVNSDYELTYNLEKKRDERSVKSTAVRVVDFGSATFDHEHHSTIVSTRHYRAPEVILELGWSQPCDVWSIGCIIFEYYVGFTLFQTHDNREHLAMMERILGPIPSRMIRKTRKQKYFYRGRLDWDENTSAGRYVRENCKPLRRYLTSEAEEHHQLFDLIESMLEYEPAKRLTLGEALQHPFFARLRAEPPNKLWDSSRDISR

effect of a mutation on the interaction	Variant
disrupting interaction strength	E295K

Variants of: B3
Details: with sat1_human SAT1, P21673
sat1_human SAT1, P21673, sequence (P21673 whole entry): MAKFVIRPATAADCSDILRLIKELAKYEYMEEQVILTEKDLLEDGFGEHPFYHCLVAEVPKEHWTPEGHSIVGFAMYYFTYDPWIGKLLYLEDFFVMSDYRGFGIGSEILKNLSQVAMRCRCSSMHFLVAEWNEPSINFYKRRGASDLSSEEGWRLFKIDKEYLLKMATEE

effect of a mutation on the interaction	Variant
disrupting interaction strength	E295K

Variants of: B3
Details: with neca2_human NECAB2, Q7Z6G3

effect of a mutation on the interaction	Variant
disrupting interaction strength	E295K

Variants of: B3
Details: with tri23_human TRIM23, P36406
tri23_human TRIM23, P36406, sequence (P36406 whole entry): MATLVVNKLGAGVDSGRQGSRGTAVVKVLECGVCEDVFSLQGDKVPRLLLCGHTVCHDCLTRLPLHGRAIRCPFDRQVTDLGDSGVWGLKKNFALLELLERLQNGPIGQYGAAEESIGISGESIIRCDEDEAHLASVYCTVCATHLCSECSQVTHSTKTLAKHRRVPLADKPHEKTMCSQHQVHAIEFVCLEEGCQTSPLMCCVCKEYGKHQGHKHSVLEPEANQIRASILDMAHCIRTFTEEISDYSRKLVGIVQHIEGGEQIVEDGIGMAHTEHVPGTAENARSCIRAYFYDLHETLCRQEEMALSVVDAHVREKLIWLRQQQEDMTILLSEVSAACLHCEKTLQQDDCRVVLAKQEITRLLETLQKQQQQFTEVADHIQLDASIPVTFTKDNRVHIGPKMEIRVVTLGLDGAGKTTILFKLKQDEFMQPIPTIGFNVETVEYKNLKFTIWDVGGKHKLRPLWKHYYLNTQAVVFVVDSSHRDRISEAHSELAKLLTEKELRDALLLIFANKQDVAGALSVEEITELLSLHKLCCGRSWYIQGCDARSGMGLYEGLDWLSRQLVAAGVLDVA

effect of a mutation on the interaction	Variant
disrupting interaction strength	E295K

Variants of: B3
Details: with mr1l1_human MRFAP1L1, Q96HT8
mr1l1_human MRFAP1L1, Q96HT8, sequence (Q96HT8 whole entry): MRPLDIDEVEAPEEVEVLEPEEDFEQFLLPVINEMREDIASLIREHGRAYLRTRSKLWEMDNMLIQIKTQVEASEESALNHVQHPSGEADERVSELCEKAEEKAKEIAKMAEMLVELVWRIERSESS

effect of a mutation on the interaction	Variant
disrupting interaction strength	E295K

Variants of: B3
Details: with ndk7_human NME7, Q9Y5B8

effect of a mutation on the interaction	Variant
disrupting interaction strength	E295K
